One may read the Kd as the concentration at which binding is half-saturated.

This is an account of results in patent US20260166158A1, “HSP90-BINDING CONJUGATES AND FORMULATIONS THEREOF” (Fusion Pharmaceuticals Inc., priority 2019, published 2026).

Series [1] relates to NCI-H460 tumor-bearing mice (lung cancer). The series is described as follows: Biodistribution: lutetium accumulation in tumor, plasma and healthy tissues by ICP-MS. Type of series: in vivo. The conditions noted are these: 0.5 mg/kg lutetium conjugate. As to the method:
Lutetium accumulation was measured in tumor, plasma and healthy tissues of NCI-H460 tumor-bearing mice (lung cancer). NCJ-H460 tumor bearing mice were dosed with 0.5 mg/kg of lutetium conjugates. At the time points indicated, mice were sacrificed and tumor, liver, kidneys and plasma were taken. All tissues were analyzed for lutetium content by ICP-MS, and lutetium uptake in % ID/g determined by the following equation: […]
Biodistribution at 24 h and Tumor/Kidney ratio (T/K), Tumor/Liver ratio (T/L), Tumor/Plasma ratio (T/P) are give in the table below.

Series [2] deals with T1, purified N-terminal HSP90a (Homo sapiens, UniProt P07900).
T1 construct: 350 ng of N-terminal HSP90a
Put plainly: HSP90 binding, competitive fluorescence polarization assay. The procedure:
HSP90 binding was determined by a competitive fluorescence polarization assay with purified N-terminal HSP90a. A series of dilutions of the test compounds were prepared with 10% DMSO in assay buffer and 10 μl of the dilution was added to a 100 μl reaction so that the final concentration of DMSO is 1% in all reactions. The reactions were conducted at room temperature for 3 hours in a 100 μl mixture containing assay buffer, 5 nM FITC Labeled Geldanamycin, 350 ng of N-terminal HSP90a, and the test compound. Fluorescence intensity was measured at an excitation of 485 nm and an emission of 530 nm using a Tecan Infinite M1000 microplate reader. Fluorescence intensity is converted to fluorescence polarization using the Tecan Magellan6 software. The fluorescence polarization data were analyzed using the computer software, Graphpad Prism. The fluorescence polarization (FPt) in absence of the compound in each data set was defined as 100% activity. In the absence of protein and the compound, the value of fluorescent polarization (FPb) in each data set was defined as 0% activity. The percent activity in the presence of the compound was calculated according to the following equation: % activity=(FP−FPb)/(FPt−FPb)×100%, where FP=the fluorescence polarization in the presence of the compound. HSP90 binding data are below.
In general terms: Fluorescence polarisation rises when a labelled molecule tumbles more slowly, as on binding a larger partner.

Turning to `CCNC(=O)c1nnc(-c2cc(C(C)C)c(O)cc2O)n1-c1ccc(CN2CCN(C(=O)CCNC(=O)[C@@H](CCC(=O)N3CCN(Cc4ccc(-n5c(C(=O)NCC)nnc5-c5cc(C(C)C)c(O)cc5O)cc4)CC3)NC(=O)CCNC(=O)[C@@H](CCC(=O)O)NC(=O)[C@@H](CCC(=O)O)NC(=O)[C@@H](CCC(=O)O)NC(=O)COCCOCCNC(=O)CC[C@H](C(=O)O)N3CCN4CCN5CCN(CC3)CC(=O)[O][Lu]([O]C(=O)C5)[O]C(=O)C4)CC2)cc1` [T4], in series [1], the “% ID/g uptake, H460 tumor, 24 h” value came to 3.06 % ID/g; the “% ID/g uptake, H460 tumor, 72 h” value was 2.19 % ID/g; the “% ID/g uptake, Kidney, 24 h” value is 4.86 % ID/g; the “% ID/g uptake, Kidney, 72 h” value came to 2.28 % ID/g. For the same compound, in series [1], the “% ID/g uptake, Liver, 24 h” value is 0.59 % ID/g; the “% ID/g uptake, Liver, 72 h” value worked out at 0.62 % ID/g; the “% ID/g uptake, Plasma, 24 h” value was 0.21 % ID/g; the “% ID/g uptake, Plasma, 72 h” value is listed as 0.09 % ID/g. Besides, the Kd in series [2] came out at 450 pM.

For the compound `CCNC(=O)c1nnc(-c2cc(C(C)C)c(O)cc2O)n1-c1ccc(OC2CCN(C(=O)CCNC(=O)[C@@H](CCC(=O)N3CCC(Oc4ccc(-n5c(C(=O)NCC)nnc5-c5cc(C(C)C)c(O)cc5O)cc4)CC3)NC(=O)CC[C@H](C(=O)O)N3CCN4CCN5CCN(CC3)CC(=O)[O][Lu]([O]C(=O)C5)[O]C(=O)C4)CC2)cc1` [T6], in series [1], the “% ID/g uptake, H460 tumor, 24 h” value is on record as 7.00 % ID/g; the “% ID/g uptake, H460 tumor, 72 h” value was 4.52 % ID/g; the “% ID/g uptake, Kidney, 24 h” value worked out at 6.77 % ID/g; the “% ID/g uptake, Kidney, 72 h” value stood at 2.57 % ID/g. Besides, in series [1], the “% ID/g uptake, Liver, 24 h” value came to 10.70 % ID/g; the “% ID/g uptake, Liver, 72 h” value was found to be 8.90 % ID/g; the “% ID/g uptake, Plasma, 24 h” value amounted to 1.65 % ID/g; the “% ID/g uptake, Plasma, 72 h” value was determined as 1.89 % ID/g. Besides, in series [2], the Kd was 450 pM.

Regarding `CCNC(=O)c1nnc(-c2cc(C(C)C)c(O)cc2O)n1-c1ccc(CN2CCN(C(=O)CCNC(=O)[C@@H](CCC(=O)N3CCN(Cc4ccc(-n5c(C(=O)NCC)nnc5-c5cc(C(C)C)c(O)cc5O)cc4)CC3)NC(=O)CCNC(=O)[C@@H](CCC(=O)O)NC(=O)[C@@H](CCC(=O)O)NC(=O)[C@@H](CCC(=O)O)NC(=O)COCCOCCNC(=O)[C@H](Cc3ccccc3)NC(=O)CNC(=O)CNC(=O)CC[C@H](C(=O)O)N3CCN4CCN5CCN(CC3)CC(=O)[O][Lu]([O]C(=O)C5)[O]C(=O)C4)CC2)cc1` [T8], in series [1], the “% ID/g uptake, H460 tumor, 24 h” value turned out to be 1.00 % ID/g; the “% ID/g uptake, H460 tumor, 72 h” value was 0.44 % ID/g; the “% ID/g uptake, Kidney, 24 h” value is 3.24 % ID/g; the “% ID/g uptake, Kidney, 72 h” value amounted to 0.84 % ID/g. In series [1], the “% ID/g uptake, Liver, 24 h” value was 0.30 % ID/g; the “% ID/g uptake, Liver, 72 h” value is listed as 0.07 % ID/g; the “% ID/g uptake, Plasma, 24 h” value stood at 0.17 % ID/g; the “% ID/g uptake, Plasma, 72 h” value came to 0.00 % ID/g. The affinity in series [2], expressed as Kd, was 480 pM.

Take `CCNC(=O)c1nnc(-c2cc(C(C)C)c(O)cc2O)n1-c1ccc(CN2CCN(C(=O)CCNC(=O)[C@@H](CCC(=O)N3CCN(Cc4ccc(-n5c(C(=O)NCC)nnc5-c5cc(C(C)C)c(O)cc5O)cc4)CC3)NC(=O)CCNC(=O)[C@@H](CCC(=O)O)NC(=O)[C@@H](CCC(=O)O)NC(=O)[C@@H](CCC(=O)O)NC(=O)COCCOCCNC(=O)CNC(=O)[C@H](CCCCN)NC(=O)CNC(=O)CC[C@H](C(=O)O)N3CCN4CCN5CCN(CC3)CC(=O)[O][Lu]([O]C(=O)C5)[O]C(=O)C4)CC2)cc1` [T9]: in series [1], the “% ID/g uptake, H460 tumor, 24 h” value was 2.43 % ID/g; the “% ID/g uptake, H460 tumor, 72 h” value is on record as 0.93 % ID/g; the “% ID/g uptake, Kidney, 24 h” value came out at 8.15 % ID/g; the “% ID/g uptake, Kidney, 72 h” value amounted to 2.78 % ID/g. In series [1], the “% ID/g uptake, Liver, 24 h” value was found to be 0.62 % ID/g; the “% ID/g uptake, Liver, 72 h” value worked out at 0.25 % ID/g; the “% ID/g uptake, Plasma, 24 h” value was determined as 26.50 % ID/g; the “% ID/g uptake, Plasma, 72 h” value is listed as 1.53 % ID/g. Besides, binding in series [2] was characterised by a dissociation constant (Kd) of 470 pM.

Take `CCNC(=O)c1nnc(-c2cc(C(C)C)c(O)cc2O)n1-c1ccc2c(ccn2CCC2CCN(C(=O)CC[C@H](NC(=O)CC[C@H](C(=O)O)N3CCN4CCN5CCN(CC3)CC(=O)[O][Lu]([O]C(=O)C5)[O]C(=O)C4)C(=O)N3CCC(CCn4ccc5cc(-n6c(C(=O)NCC)nnc6-c6cc(C(C)C)c(O)cc6O)ccc54)CC3)CC2)c1` [T10]: in series [1], the “% ID/g uptake, H460 tumor, 24 h” value came to 3.91 % ID/g; the “% ID/g uptake, H460 tumor, 72 h” value was 3.18 % ID/g; the “% ID/g uptake, Kidney, 24 h” value is recorded as 14.70 % ID/g; the “% ID/g uptake, Kidney, 72 h” value was 7.74 % ID/g. In addition, in series [1], the “% ID/g uptake, Liver, 24 h” value is given as 7.28 % ID/g; the “% ID/g uptake, Liver, 72 h” value is listed as 4.34 % ID/g; the “% ID/g uptake, Plasma, 24 h” value is 2.29 % ID/g; the “% ID/g uptake, Plasma, 72 h” value was found to be 0.37 % ID/g. Moreover, the Kd in series [2] amounted to 770 pM.

In the case of `CCNC(=O)c1nnc(-c2cc(C(C)C)c(O)cc2O)n1-c1ccc(OC2CCN(C(=O)CCNC(=O)[C@@H](CCC(=O)O)NC(=O)[C@@H](CCC(=O)O)NC(=O)[C@@H](CCC(=O)O)NC(=O)COCCOCCNC(=O)[C@H](CCCCNC(=O)CC[C@H](C(=O)O)N3CCN4CCN5CCN(CC3)CC(=O)[O][Lu]([O]C(=O)C5)[O]C(=O)C4)NC(=O)CCCc3ccc(I)cc3)CC2)cc1` [T11], in series [1], the “% ID/g uptake, H460 tumor, 24 h” value is given as 6.37 % ID/g; the “% ID/g uptake, H460 tumor, 72 h” value is given as 1.74 % ID/g; the “% ID/g uptake, Kidney, 24 h” value is reported as 14.90 % ID/g; the “% ID/g uptake, Kidney, 72 h” value amounted to 5.21 % ID/g. Further, in series [1], the “% ID/g uptake, Liver, 24 h” value was 1.03 % ID/g; the “% ID/g uptake, Liver, 72 h” value was found to be 0.46 % ID/g; the “% ID/g uptake, Plasma, 24 h” value was 0.51 % ID/g; the “% ID/g uptake, Plasma, 72 h” value is 0.02 % ID/g. This compound showed a Kd in series [2] of 700 pM.

In the case of `CCNC(=O)c1nnc(-c2cc(C(C)C)c(O)cc2O)n1-c1ccc(OC2CCN(C(=O)CCNC(=O)[C@@H](CCC(=O)N3CCC(Oc4ccc(-n5c(C(=O)NCC)nnc5-c5cc(C(C)C)c(O)cc5O)cc4)CC3)NC(=O)CCNC(=O)[C@@H](CCC(=O)O)NC(=O)[C@@H](CCC(=O)O)NC(=O)[C@@H](CCC(=O)O)NC(=O)COCCOCCNC(=O)[C@H](CCCCNC(=O)CC[C@H](C(=O)O)N(CC)CCN3CCN4CCN(C)CC(=O)[O][Lu]([O]C(=O)C4)[O]C(=O)C3)NC(=O)CCCc3ccc(I)cc3)CC2)cc1` [T12], in series [1], the “% ID/g uptake, H460 tumor, 24 h” value worked out at 9.01 % ID/g; the “% ID/g uptake, H460 tumor, 72 h” value is on record as 5.87 % ID/g; the “% ID/g uptake, Kidney, 24 h” value was 34.00 % ID/g; the “% ID/g uptake, Kidney, 72 h” value is listed as 18.60 % ID/g. In series [1], the “% ID/g uptake, Liver, 24 h” value was determined as 3.73 % ID/g; the “% ID/g uptake, Liver, 72 h” value worked out at 2.03 % ID/g; the “% ID/g uptake, Plasma, 24 h” value is recorded as 5.08 % ID/g; the “% ID/g uptake, Plasma, 72 h” value worked out at 0.41 % ID/g.

Turning to `CCNC(=O)c1nnc(-c2cc(C(C)C)c(O)cc2O)n1-c1ccc(CN2CCN(C(=O)CCNC(=O)[C@@H](CCC(=O)N3CCN(Cc4ccc(-n5c(C(=O)NCC)nnc5-c5cc(C(C)C)c(O)cc5O)cc4)CC3)NC(=O)CCNC(=O)[C@@H](CCC(=O)O)NC(=O)[C@@H](CCC(=O)O)NC(=O)[C@@H](CCC(=O)O)NC(=O)COCCOCCNC(=O)[C@H](Cc3ccccc3)NC(=O)CNC(=O)[C@H](CCCCNC(=O)CC[C@H](C(=O)O)N(CC)CCN3CCN4CCN(C)CC(=O)[O][Lu]([O]C(=O)C4)[O]C(=O)C3)NC(=O)CCCc3ccc(I)cc3)CC2)cc1` [T15], in series [1], the “% ID/g uptake, H460 tumor, 24 h” value is 2.16 % ID/g; the “% ID/g uptake, H460 tumor, 72 h” value came to 0.70 % ID/g; the “% ID/g uptake, Kidney, 24 h” value is on record as 12.50 % ID/g; the “% ID/g uptake, Kidney, 72 h” value is 4.37 % ID/g. For the same compound, in series [1], the “% ID/g uptake, Liver, 24 h” value is on record as 1.78 % ID/g; the “% ID/g uptake, Liver, 72 h” value came out at 1.16 % ID/g; the “% ID/g uptake, Plasma, 24 h” value turned out to be 2.79 % ID/g; the “% ID/g uptake, Plasma, 72 h” value is listed as 0.14 % ID/g. Moreover, the equilibrium dissociation constant (Kd) in series [2] came to 430 pM.
